Laboratory results: PMC2367706
Where two headings read alike, the source gives them in different places.

T1: GST:CD+HD (UniProt Q01826 255-763)
T1 sequence: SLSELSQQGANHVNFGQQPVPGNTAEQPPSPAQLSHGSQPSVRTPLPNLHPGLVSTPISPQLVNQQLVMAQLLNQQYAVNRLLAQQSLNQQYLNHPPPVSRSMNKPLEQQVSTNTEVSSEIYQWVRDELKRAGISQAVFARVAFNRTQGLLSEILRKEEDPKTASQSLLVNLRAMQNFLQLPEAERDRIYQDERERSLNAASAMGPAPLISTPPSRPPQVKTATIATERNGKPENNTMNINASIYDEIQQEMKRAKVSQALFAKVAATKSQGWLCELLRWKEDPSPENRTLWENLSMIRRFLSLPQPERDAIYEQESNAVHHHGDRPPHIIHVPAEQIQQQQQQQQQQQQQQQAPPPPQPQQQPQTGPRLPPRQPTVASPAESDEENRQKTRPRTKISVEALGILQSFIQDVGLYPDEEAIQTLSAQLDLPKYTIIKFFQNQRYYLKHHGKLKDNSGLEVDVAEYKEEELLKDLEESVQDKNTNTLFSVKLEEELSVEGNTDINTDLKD

T2: GST:HD (UniProt Q01826 640-763)
T2 sequence: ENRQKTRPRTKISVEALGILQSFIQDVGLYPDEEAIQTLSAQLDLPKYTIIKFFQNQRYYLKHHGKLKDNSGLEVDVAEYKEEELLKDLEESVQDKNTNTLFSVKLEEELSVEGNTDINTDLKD


Assays:
Experiment in all cases: EMSA
GST:CD+HD [1] = target: T1, GST:CD+HD
GST:HD = target: T2, GST:HD
GST:CD+HD [2] = target: T1, GST:CD+HD; remark: listed apart in the source

| Binder | Kd (GST:CD+HD [1]) [nM] | Kd (GST:HD) [nM] | Kd (GST:CD+HD [2]) [nM] |
| --- | --- | --- | --- |
| probe 5 (dsDNA) DNA 1: TATTAATAATAATATTAATAATAA DNA 2: TTATTATTAATATTATTATTAATA | 10 | – | – |
| probe 9 (dsDNA) DNA 1: TATTAGTAATCATATTAGTAATCA DNA 2: TGATTACTAATATGATTACTAATA | 10 | – | – |
| probe 13 (IgH MAR core dimer) (dsDNA) DNA 1: AATTTCTAATATAATTTCTAATAT DNA 2: ATATTAGAAATTATATTAGAAATT | 10 | – | – |
| probe 3 (dsDNA) DNA 1: TATTAGCAATAATATTAGCAATAA DNA 2: TTATTGCTAATATTATTGCTAATA | 50 | – | – |
| CSBS dimer (probe 1) (dsDNA) DNA 1: TATTAGTAATAATATTAGTAATAA DNA 2: TTATTACTAATATTATTACTAATA | – | 200 | 10 |
| probe 10 (dsDNA) DNA 1: TATTAGTAATACTATTAGTAATAC DNA 2: GTATTACTAATAGTATTACTAATA | 20 | 200 | – |
